Tests used:
[1] = molecular target: T1, fusion of maltose binding protein, QRGRSA and the HY4 gene product of Arabidopsis thaliana, Q43125
T1 chain: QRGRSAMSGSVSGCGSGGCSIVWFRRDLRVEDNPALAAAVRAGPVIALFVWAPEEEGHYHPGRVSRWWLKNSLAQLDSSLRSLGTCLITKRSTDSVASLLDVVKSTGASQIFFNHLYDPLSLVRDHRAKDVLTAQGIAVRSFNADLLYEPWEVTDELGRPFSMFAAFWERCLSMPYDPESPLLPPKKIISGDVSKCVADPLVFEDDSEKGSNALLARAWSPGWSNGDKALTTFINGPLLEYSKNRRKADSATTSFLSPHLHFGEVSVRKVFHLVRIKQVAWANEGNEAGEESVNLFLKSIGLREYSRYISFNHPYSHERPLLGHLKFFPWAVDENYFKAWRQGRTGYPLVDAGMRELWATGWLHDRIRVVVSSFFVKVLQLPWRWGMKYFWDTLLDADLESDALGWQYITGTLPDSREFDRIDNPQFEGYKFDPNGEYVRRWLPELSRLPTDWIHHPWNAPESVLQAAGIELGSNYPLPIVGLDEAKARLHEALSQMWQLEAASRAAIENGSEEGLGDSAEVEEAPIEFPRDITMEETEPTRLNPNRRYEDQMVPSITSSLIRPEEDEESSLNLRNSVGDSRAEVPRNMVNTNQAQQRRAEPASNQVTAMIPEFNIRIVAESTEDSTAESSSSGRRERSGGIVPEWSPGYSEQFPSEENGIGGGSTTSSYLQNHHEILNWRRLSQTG

[2] = molecular target: T2, peptide (III) of Table 1, LGGSGERARGALE
T2 chain: LGGSGERARGALE

peptide SGRS [3] = molecular target: T3, peptide SGRS
T3 chain: SGRS

[4] = molecular target: T4, peptide (I), native cleavage sequence from plasminogen
T4 chain: KKSPGRVVGGSVAH

peptide SGKS [5] = molecular target: T5, peptide SGKS
T5 chain: SGKS

peptide LGGSGRNAQVRLE [6] = molecular target: T6, peptide LGGSGRNAQVRLE
T6 chain: LGGSGRNAQVRLE

peptide LGGSGRSANAILE [7] = molecular target: T7, peptide LGGSGRSANAILE
T7 chain: LGGSGRSANAILE

peptide GSGKS [8] = molecular target: T8, peptide GSGKS
T8 chain: GSGKS

[9] = molecular target: T9, peptide (IV) of Table 1, LGGSGHYGRSGLE
T9 chain: LGGSGHYGRSGLE

peptide SGRSA [10] = molecular target: T10, peptide SGRSA
T10 chain: SGRSA

peptide LGGRGRSANAILE [11] = molecular target: T11, peptide LGGRGRSANAILE
T11 chain: LGGRGRSANAILE

peptide LGGSGRSATRDLE [12] = molecular target: T12, peptide LGGSGRSATRDLE
T12 chain: LGGSGRSATRDLE

peptide LGGSGRKASLSLE [13] = molecular target: T13, peptide LGGSGRKASLSLE
T13 chain: LGGSGRKASLSLE

peptide LGGYGRSANAILE [14] = molecular target: T14, peptide LGGYGRSANAILE
T14 chain: LGGYGRSANAILE

[15] = molecular target: T15, peptide (VI) of Table 1, RGRK
T15 chain: RGRK

[16] = molecular target: T16, peptide (VII) of Table 1, FRGRK
T16 chain: FRGRK

[17] = molecular target: T17, peptide (V) of Table 1, YGRS
T17 chain: YGRS

peptide LGQRGRSANAILE [18] = molecular target: T18, peptide LGQRGRSANAILE
T18 chain: LGQRGRSANAILE

[19] = molecular target: T19, peptide (II) of Table 1, LGGSGQRGRKALE
T19 chain: LGGSGQRGRKALE

peptide SGRS [20] = molecular target: T3, peptide SGRS; assay: kinetics of peptide hydrolysis by the enzyme, HILIC HPLC, Eadie-Hofstee
peptide SGKS [21] = molecular target: T5, peptide SGKS; assay: as above
peptide GSGKS [22] = molecular target: T8, peptide GSGKS; assay: as above
peptide SGRSA [23] = molecular target: T10, peptide SGRSA; assay: as above
[24] = molecular target: T15, peptide (VI) of Table 1, RGRK; assay: as above
[25] = molecular target: T16, peptide (VII) of Table 1, FRGRK; assay: as above
[26] = molecular target: T17, peptide (V) of Table 1, YGRS; assay: as above
[27] = molecular target: T2, peptide (III) of Table 1, LGGSGERARGALE; assay: kinetics of peptide hydrolysis by the enzyme, HPLC, Eadie-Hofstee
[28] = molecular target: T4, peptide (I), native cleavage sequence …; assay: as above
peptide LGGSGRNAQVRLE [29] = molecular target: T6, peptide LGGSGRNAQVRLE; assay: as above
peptide LGGSGRSANAILE [30] = molecular target: T7, peptide LGGSGRSANAILE; assay: as above
[31] = molecular target: T9, peptide (IV) of Table 1, LGGSGHYGRSGLE; assay: as above
peptide LGGRGRSANAILE [32] = molecular target: T11, peptide LGGRGRSANAILE; assay: as above
peptide LGGSGRSATRDLE [33] = molecular target: T12, peptide LGGSGRSATRDLE; assay: as above
peptide LGGSGRKASLSLE [34] = molecular target: T13, peptide LGGSGRKASLSLE; assay: as above
peptide LGGYGRSANAILE [35] = molecular target: T14, peptide LGGYGRSANAILE; assay: as above
peptide LGQRGRSANAILE [36] = molecular target: T18, peptide LGQRGRSANAILE; assay: as above
[37] = molecular target: T19, peptide (II) of Table 1, LGGSGQRGRKALE; assay: as above

B1: tissue plasminogen activator (t-PA) (protein)
chain: SYQVICRDEKTQMIYQQHQSWLRPVLRSNRVEYCWCNSGRAQCHSVPVKSCSEPRCFNGGTCQQALYFSDFVCQCPEGFAGKCCEIDTRATCYEDQGISYRGTWSTAESGAECTNWNSSALAQKPYSGRRPDAIRLGLGNHNYCRNPDRDSKPWCYVFKAGKYSSEFCSTPACSEGNSDCYFGNGSAYRGTHSLTESGASCLPWNSMILIGKVYTAQNPSAQALGLGKHNYCRNPDGDAKPWCHVLKNRRLTWEYCDVPSCSTCGLRQYSQPQFRIKGGLFADIASHPWQAAIFAKHRRSPGERFLCGGILISSCWILSAAHCFQERFPPHHLTVILGRTYRVVPGEEEQKFEVEKYIVHKEFDDDTYDNDIALLQLKSDSSRCAQESSVVRTVCLPPADLQLPDWTECELSGYGKHEALSPFYSERLKEAHVRLYPSSRCTSQHLLNRTVTDNMLCAGDTRSGGPQANLHDACQGDSGGPLVCLNDGRMTLVGIISWGLGCGQKDVPGVYTKVTNYLDWIRDNMRP
With B1 the “cleavage of fusion protein, SDS-PAGE” value [1] was “t-PA readily cleaved the fusion protein”, the kcat [2] was 0.073 s⁻¹ and the kcat/Km [2] was 52 M⁻¹ s⁻¹. It also gave a kcat (peptide SGRS [3]) of 5 s⁻¹, a kcat/Km (peptide SGRS [3]) of 330 M⁻¹ s⁻¹ and a kcat [4] of 0.0043 s⁻¹. For the same protein, the kcat/Km [4] was 0.29 M⁻¹ s⁻¹, the “fold decrease of catalytic efficiency against peptide (VI) SGRS” value (peptide SGKS [5]) was “by a factor of 49 for t-PA” and the kcat (peptide SGKS [5]) was 0.19 s⁻¹. It also gave a kcat/Km (peptide SGKS [5]) of 6.8 M⁻¹ s⁻¹, a kcat (peptide LGGSGRNAQVRLE [6]) of 0.255 s⁻¹ and a kcat/Km (peptide LGGSGRNAQVRLE [6]) of 36 M⁻¹ s⁻¹. The kcat (peptide LGGSGRSANAILE [7]) was 0.305 s⁻¹, the kcat/Km (peptide LGGSGRSANAILE [7]) was 75 M⁻¹ s⁻¹ and the kcat (peptide GSGKS [8]) was 0.07 s⁻¹. It also gave a kcat/Km (peptide GSGKS [8]) of 1.6 M⁻¹ s⁻¹, a kcat [9] of 1.29 s⁻¹ and a kcat/Km [9] of 322 M⁻¹ s⁻¹. For the same protein, the kcat (peptide SGRSA [10]) was 2.4 s⁻¹, the kcat/Km (peptide SGRSA [10]) was 60 M⁻¹ s⁻¹ and the kcat (peptide LGGRGRSANAILE [11]) was 0.85 s⁻¹. The kcat/Km (peptide LGGRGRSANAILE [11]) was 350 M⁻¹ s⁻¹, the kcat (peptide LGGSGRSATRDLE [12]) was 0.068 s⁻¹ and the kcat/Km (peptide LGGSGRSATRDLE [12]) was 45 M⁻¹ s⁻¹. The kcat (peptide LGGSGRKASLSLE [13]) was 0.168 s⁻¹, the kcat/Km (peptide LGGSGRKASLSLE [13]) was 33 M⁻¹ s⁻¹ and the kcat (peptide LGGYGRSANAILE [14]) was 3.29 s⁻¹. It also gave a kcat/Km (peptide LGGYGRSANAILE [14]) of 1800 M⁻¹ s⁻¹, a kcat [15] of 15.3 s⁻¹ and a kcat/Km [15] of 992 M⁻¹ s⁻¹. For the same protein, the “fold more efficient cleavage by t-PA than by u-PA” value [16] was “approximately 74 times more efficiently by t-PA than by u-PA”, the kcat [16] was 12.2 s⁻¹ and the kcat/Km [16] was 1240 M⁻¹ s⁻¹. It also gave a kcat [17] of 23.7 s⁻¹, a kcat/Km [17] of 3950 M⁻¹ s⁻¹ and a kcat (peptide LGQRGRSANAILE [18]) of 2.55 s⁻¹. For the same protein, the kcat/Km (peptide LGQRGRSANAILE [18]) was 850 M⁻¹ s⁻¹, the kcat [19] was 0.99 s⁻¹ and the kcat/Km [19] was 430 M⁻¹ s⁻¹. It also gave a Km (peptide SGRS [20]) of 15 mM, a Km (peptide SGKS [21]) of 28 mM and a Km (peptide GSGKS [22]) of 44 mM. The Km (peptide SGRSA [23]) was 40 mM, the Km [24] was 16.6 mM and the Km [25] was 9.8 mM. It also gave a Km [26] of 6 mM, a Km [27] of 1.41 mM and a Km [28] of 15 mM. The Km (peptide LGGSGRNAQVRLE [29]) was 7 mM, the Km (peptide LGGSGRSANAILE [30]) was 4.08 mM and the Km [31] was 4.01 mM. For the same protein, the Km (peptide LGGRGRSANAILE [32]) was 2.4 mM, the Km (peptide LGGSGRSATRDLE [33]) was 1.5 mM and the Km (peptide LGGSGRKASLSLE [34]) was 5.1 mM. The Km (peptide LGGYGRSANAILE [35]) was 1.85 mM, the Km (peptide LGQRGRSANAILE [36]) was 3 mM and the Km [37] was 2.3 mM.
